Here are results for 8 molecules from US20220089784A1 (University of California, published 2022).

The chains are these.
T1: BoNT/B light chain (recombinant) (Clostridium botulinum, UniProt P10844 1-441)
T1 sequence: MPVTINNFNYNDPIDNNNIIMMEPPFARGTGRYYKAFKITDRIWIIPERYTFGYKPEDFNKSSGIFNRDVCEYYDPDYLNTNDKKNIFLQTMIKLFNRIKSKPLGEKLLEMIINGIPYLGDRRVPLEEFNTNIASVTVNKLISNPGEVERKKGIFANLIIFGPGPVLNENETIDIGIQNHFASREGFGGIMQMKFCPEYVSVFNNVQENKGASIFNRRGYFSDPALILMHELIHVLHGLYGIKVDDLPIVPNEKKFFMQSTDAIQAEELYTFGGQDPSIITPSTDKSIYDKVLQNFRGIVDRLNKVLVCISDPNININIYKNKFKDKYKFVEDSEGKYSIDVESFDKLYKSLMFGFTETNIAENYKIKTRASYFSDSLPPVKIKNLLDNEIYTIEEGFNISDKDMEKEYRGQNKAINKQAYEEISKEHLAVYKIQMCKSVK

T2: BoNT/B1 (Clostridium botulinum, UniProt P10844 2-1291)
T2 sequence: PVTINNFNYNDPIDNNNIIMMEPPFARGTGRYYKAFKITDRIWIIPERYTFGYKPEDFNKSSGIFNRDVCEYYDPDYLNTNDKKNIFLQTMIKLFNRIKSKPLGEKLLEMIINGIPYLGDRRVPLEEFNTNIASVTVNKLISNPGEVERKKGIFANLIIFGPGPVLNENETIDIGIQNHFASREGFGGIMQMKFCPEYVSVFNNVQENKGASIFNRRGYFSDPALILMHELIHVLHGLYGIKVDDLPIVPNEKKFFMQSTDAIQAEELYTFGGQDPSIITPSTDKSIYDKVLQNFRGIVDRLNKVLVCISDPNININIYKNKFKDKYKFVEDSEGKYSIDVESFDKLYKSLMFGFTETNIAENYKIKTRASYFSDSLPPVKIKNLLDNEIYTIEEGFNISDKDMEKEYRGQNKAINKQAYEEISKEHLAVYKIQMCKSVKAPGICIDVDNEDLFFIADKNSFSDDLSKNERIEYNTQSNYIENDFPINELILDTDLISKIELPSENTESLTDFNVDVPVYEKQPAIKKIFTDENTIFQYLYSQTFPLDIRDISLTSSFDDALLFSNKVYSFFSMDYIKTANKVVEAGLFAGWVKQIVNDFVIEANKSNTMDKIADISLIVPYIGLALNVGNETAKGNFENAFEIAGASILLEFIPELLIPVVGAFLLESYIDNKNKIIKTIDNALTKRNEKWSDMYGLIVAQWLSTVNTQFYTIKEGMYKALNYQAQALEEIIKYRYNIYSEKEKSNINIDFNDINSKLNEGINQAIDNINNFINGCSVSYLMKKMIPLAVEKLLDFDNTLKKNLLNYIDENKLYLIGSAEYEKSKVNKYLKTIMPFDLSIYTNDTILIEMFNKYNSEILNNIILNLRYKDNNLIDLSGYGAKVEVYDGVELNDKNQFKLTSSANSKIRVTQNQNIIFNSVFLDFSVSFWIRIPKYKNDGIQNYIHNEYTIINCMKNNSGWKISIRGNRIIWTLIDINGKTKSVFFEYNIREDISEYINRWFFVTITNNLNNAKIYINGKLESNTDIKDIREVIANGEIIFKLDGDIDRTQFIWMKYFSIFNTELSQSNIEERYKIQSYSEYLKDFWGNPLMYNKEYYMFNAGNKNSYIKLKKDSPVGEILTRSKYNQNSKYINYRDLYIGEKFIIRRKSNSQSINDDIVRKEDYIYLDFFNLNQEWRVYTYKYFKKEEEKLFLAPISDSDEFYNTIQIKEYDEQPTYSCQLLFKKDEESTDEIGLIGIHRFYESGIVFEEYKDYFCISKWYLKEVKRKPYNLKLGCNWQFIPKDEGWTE

T3: BoNT/F1 (proteolytic BoNT/F) (Clostridium botulinum, UniProt A7GBG3 1-1278)
T3 sequence: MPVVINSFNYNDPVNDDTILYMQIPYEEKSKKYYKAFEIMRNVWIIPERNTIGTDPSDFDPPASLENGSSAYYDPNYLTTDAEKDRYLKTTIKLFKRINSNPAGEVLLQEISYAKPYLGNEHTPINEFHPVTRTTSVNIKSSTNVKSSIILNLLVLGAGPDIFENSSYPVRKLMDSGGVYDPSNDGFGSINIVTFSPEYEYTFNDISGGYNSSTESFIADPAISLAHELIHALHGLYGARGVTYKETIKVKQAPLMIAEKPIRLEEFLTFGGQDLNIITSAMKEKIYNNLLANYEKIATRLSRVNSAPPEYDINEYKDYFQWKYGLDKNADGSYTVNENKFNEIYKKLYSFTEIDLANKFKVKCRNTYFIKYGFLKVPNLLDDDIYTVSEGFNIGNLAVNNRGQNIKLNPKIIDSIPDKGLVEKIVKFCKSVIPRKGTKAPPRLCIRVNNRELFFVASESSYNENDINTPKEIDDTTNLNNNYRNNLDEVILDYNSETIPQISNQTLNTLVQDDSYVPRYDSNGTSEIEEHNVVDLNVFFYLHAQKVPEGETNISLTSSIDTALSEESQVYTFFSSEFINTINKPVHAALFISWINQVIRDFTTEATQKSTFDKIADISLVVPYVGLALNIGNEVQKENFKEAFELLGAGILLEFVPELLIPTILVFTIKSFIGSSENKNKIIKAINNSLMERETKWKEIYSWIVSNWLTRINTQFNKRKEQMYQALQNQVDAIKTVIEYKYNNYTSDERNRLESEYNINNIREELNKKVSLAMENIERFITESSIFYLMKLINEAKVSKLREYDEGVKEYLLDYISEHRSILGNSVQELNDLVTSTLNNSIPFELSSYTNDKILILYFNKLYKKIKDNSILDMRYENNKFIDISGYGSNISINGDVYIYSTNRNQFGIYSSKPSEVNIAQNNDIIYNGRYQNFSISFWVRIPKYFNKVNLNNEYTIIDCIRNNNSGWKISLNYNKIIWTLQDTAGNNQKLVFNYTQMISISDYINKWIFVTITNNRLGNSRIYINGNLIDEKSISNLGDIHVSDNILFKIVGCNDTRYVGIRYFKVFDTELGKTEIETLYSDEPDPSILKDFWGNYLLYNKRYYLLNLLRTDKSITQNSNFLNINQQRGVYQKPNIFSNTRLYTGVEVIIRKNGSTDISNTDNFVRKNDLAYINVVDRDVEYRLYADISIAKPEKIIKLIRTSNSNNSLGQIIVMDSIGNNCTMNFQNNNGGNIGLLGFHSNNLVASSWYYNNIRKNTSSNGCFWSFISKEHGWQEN

T4: BoNT/F 202F (Clostridium botulinum, UniProt P30996 1-1274)
T4 sequence: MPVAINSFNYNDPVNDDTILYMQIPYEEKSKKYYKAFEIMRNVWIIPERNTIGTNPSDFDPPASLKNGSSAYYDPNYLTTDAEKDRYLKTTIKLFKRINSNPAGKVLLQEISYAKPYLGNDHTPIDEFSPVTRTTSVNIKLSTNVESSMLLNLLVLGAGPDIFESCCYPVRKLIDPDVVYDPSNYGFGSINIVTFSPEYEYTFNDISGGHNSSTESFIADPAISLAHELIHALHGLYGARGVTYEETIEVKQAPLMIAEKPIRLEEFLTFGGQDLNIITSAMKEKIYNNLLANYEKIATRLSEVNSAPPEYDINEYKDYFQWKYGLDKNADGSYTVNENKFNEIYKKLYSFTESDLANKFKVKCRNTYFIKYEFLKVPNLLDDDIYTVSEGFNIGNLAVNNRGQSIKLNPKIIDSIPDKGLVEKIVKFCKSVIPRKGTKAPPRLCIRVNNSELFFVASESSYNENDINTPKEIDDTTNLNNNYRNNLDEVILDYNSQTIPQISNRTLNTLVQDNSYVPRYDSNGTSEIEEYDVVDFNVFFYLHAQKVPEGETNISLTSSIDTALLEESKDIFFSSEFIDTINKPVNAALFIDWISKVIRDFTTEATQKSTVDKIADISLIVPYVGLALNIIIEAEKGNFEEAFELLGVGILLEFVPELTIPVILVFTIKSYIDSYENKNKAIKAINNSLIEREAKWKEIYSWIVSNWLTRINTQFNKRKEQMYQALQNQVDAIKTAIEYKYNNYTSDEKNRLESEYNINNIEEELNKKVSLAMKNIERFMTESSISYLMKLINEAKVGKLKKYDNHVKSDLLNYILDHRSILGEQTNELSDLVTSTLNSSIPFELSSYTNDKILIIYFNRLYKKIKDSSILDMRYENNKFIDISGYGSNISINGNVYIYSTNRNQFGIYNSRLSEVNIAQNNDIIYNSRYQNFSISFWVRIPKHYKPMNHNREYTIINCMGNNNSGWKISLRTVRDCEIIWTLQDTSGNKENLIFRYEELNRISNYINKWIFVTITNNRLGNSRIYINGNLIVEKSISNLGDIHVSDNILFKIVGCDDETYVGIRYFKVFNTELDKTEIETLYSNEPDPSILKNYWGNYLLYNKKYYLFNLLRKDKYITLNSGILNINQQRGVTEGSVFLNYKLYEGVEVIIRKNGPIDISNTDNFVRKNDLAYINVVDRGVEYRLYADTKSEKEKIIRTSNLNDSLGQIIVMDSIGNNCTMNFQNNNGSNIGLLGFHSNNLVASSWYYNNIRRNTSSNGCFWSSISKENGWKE

B1: 19A9 scFv (scFv)
scFv: EVQLQQPGSELARPGASVKLSCKASGYTFTSYPITWVKQTTGQGLEWIGEIYPRSGNTYYNEKFKGKATLTADKSSSTAYMELRSLTSEDSAVYFCARDYYDYAGGGRGYWGQGTTLTVSSVDLKSGGSTSGSGKPGSGEGSSGSARDIVLTQSPAIMSASPGGKITITCSASSSVSYMHWFQQKPGTSPKLWIYSTSNLASGVPARFSGSGSGTSYSLTISRMEAEDAATYYCQQRSSYPYTFGGGTKLEIK
notes: mouse
B2: 18D10 scFv (scFv)
scFv: QVQLKQSGIEVMKPGASVKLSCKASGYPFTAYWIEWVKQRPGHGLEWIGEFLPGGISTNFNEKFKGKATFSADTSSNSAYIQLNSLTTEDSAIYYCVLTGTGFDYWGQGTSVTVSSVDLKSGGSTSGSGKPGSGEGSSGSARENVLTQSPAIMSASPGEKVTMTCSASSSVSYMHWYQQKSGTSPKRWIYDTSKLASGVPARFSGSGSGTSYSLTISSMEAEDAATYYCQQWSSNPLTFGAGTKLELK
notes: mouse
B3: 19D2 scFv (scFv)
scFv: EVQLQQSGGELARPGSSVKLSCKASGYSFTGYSLTWVKQTPGQGLEWIGEIYPRSGNTYYNENFQGKATLTADESSSTAYMELRSLTSEDSAVYFCARDFYDYDGGGRGYWGQGTTLTVSSVDLKSGGSTSGSGKPGSGEGSSGSARDIVMTQTPAIMSASPGEKVTITCSASSSVSYMHWYQQKPGTSPKLWIYSTSNLASGVPARFSGSGSGTSYSLTISRMEAEDAATYYCQQRSSYPYTFGGGTKLEIK
notes: mouse
B4: 19D22 scFv (scFv)
scFv: QIQLLQSGAELVRPGTSVKMSCKAAGYPFTSYWMGWVKQRPGHGLEWIGDIYPGGPYTNYNEKFKGKATLTADTSSSTAYMQFSSLTSEDSAIYYCALYGQVGSYAMDYWGQGTSVTVSSVDLKSGGSTSGSGKPGSGEGSSGSARQIVLTQSPAIMSASPGEKVTMTCSASSSVSYMYWYQQKPGSSPRLLIYDTSNLASGVPVRFSGSGSGTSYSLTISRMEAEDAATYYCQQWSSYPPITFGAGTKLEIK
notes: mouse
B5: 41C2 scFv (scFv, V domains shown)
VH: EVQQVQSGGNLVQPGGSLRLSCAATGPIGSHWMTWVRQAPGQGLEWVANINLDGTEKFYVDSVKGRFTVSRDNRKSSVFLQMNNLRVDDTAVYYCARLQWGGYNGWLSPWGQGTLVTVSS
VL: DIVMTQSPPSLSASVGDRVSLTCRASEYIGTSLNWYQQKPGKAPKLLIYAASALHSGVPSRFSGSGSGTDFTLTISGLQPEDFATYYCQQTNDLPLTFGGGTKLEIK
B6: 43D3 scFv (scFv, V domains shown)
VH: B5 VH
VL: B5 VL with T91A, I106N
B7: 41E2 scFv (scFv, V domains shown)
VH: B5 VH with Q4L, Q6P
VL: B5 VL with T5I, T91A
B8: 41F7 scFv (scFv, V domains shown)
VH: B5 VH with Q4L, Q6P
VL: B5 VL with V3L, T91A

Residue numbers refer to the chain shown, from its start.

In one assay the target is T1, BoNT/B light chain (recombinant). The assay is described as follows: yeast scFv FACS.
One may read the Kd as the free concentration of one partner at which half of the binding sites on the other are occupied at equilibrium, for simple one-to-one binding. As for B1, the Kd came out at 3.16 nM.

B2: the Kd came out at 7.53 nM.

Regarding B3, the Kd came to 5.69 nM.

In the case of B4, the Kd amounted to 21.2 nM.

For another assay, the target named is T2, BoNT/B1. The assay is described as follows: yeast scFv FACS.
In the case of B1, binding was put at a Kd of 1.98 nM.

Consider B2, for which the Kd was determined as 5.97 nM.

Turning to B3, the Kd worked out at 2.95 nM.

As to B4, the Kd is 7.39 nM.

Another assay has as its target T3, BoNT/F1 (proteolytic BoNT/F). The assay is described as follows: yeast scFv FACS.
With B5, the Kd worked out at 0.355 nM.

B6 displayed a Kd of 0.333 nM.

B7 had a Kd of 0.584 nM.

For B8, the affinity, expressed as Kd, was 0.566 nM.

The target in another assay is T4, BoNT/F 202F. The assay is described as follows: yeast scFv FACS.
In the case of B5, the binding result is recorded as “binds”.

For the molecule B6, the binding result was “binds”.

In the case of B7, the binding result is “binds”.

With B8, the binding result is on record as “binds”.
